This series is described as follows: soluble on expression in E. coli; label from the status in PepcDB or PDB records.
For the sequence “METLSDVFATFSQRGDTTAFVHRTGVRRYVFTYLDLHALSLRMNRWLADQGVGEGDRVVLWGPNSPWWAVAFWGIVTRGAVAVPVDFMSGAERAEIIAGLTDAKLVIQSRDKLDRLTGRPSVLLEELGFLLEAVEPLATTHRPAPDDMAELIYTSGTTGNPKGVILTHRNLVANILQVNRHIPVVTPDFSFLSLLPLSHMFEQMGGFFTPLYRGAAIVYIRTLKPSAIMEALGEEDIYAIIAVPRLLQLLKGSVERELEAKGLGSIFRWLLKVGERMSRGGRSVLFRPIQRKFGRNFALFVSGGAPLDPEVFRFWNGLGFRVVEGYGLTECSPVLTANTMERQVMGSVGTPLDGVELRLEEGEILARGDNIFPGYFRNEEATRGAFVDGWFRTGDLGELDPDGWLRIKGRSKELIVTGAGVNVYPDEIEAILNRTQGVREGCVIGLDRGKGEEVHGVLILDGSGRPTEEIVNEVNAKFDELHRITSFSVWPEAEFPKTTTLKIRKFQVKERIEQGGGALGDGRGADRLTALVATITGSPLEQVTEGALLVNDLGLTSIARLELVNALEMEFRLDLEDSVIGPQTRVADLREIVSRREKVHIREHFRIWAMGGVALAVRRLLDTVLHGPLLRAFVTLKSLGIENLEAADGPVMFVSNHLSYLDQPAIMCVLPDAWRYNTATAAWEEFFFRNFKNLPQRLWKRFTYEYASVAFTVFPLPQSRGFRGALHFMGTLADQGMNILLFPEGERSRDGRLLPFQQGLGVMIRELGVPVVPVRIRGLEKVLPRGASWPQKGEVSITFGKPIHFRGESPTEIVDRARRAVEDLLEHHHHHH”, the “soluble on expression in E. coli” value is given as “not soluble”.

As to “PKWQAVRAEYQRQRDPLHQFASQQNPEAQLQALQDKIRANPQNSEQWALLGEYYLWQNDYSNSLLAYRQALQLRGENAELYAALATVLYYQASQHMTAQTRAMIDKALALDSNEITALMLLASDAFMQANYAQAIELWQKVMDLNSPRINRTQLVESINMAKLLQRRSDLEHHHHHH”, the “soluble on expression in E. coli” value is “soluble”.

For “MEKRNEEHSRKKFIEEQLNALKHEERVLNETRTKLQQQKWHLLQENDKIKEKIRVRDAAAGAGTGTGAPPE”, the “soluble on expression in E. coli” value was “not soluble”.

For the sequence “AHHHHHHGSAGVRLVGVWKQFGSFTAVKDLTLEVRDGEFLVLLGPSGCGKTTTLRMIAGLEEPTKGQIYIGDKLVADPEKGVFVPPKDRDIAMVFQSYALYPHMTVYENIAFPLKLRKVPKQEIDKRVREVAEMLGLTELLNRKPRELSGGQRQRVALGRAIVRRPQVFLMDEPLSNLDAKLRVKMRAELKKLQKQLGVTTIYVTHDQVEAMTMGDRIAVMNQGVLQQVGTPEEVYEKPANTFVAGFIGSPPMNFLDATITEDGFLDFGEFRLKLLPDQFEVLQDYVGKEVIFGIRPEDIYDALFAQVKIPGENMARGVVDIIENLGGEKIVHISIGGLIVTAKFPGESRVKEGDEIDIVFDMKKIHIFNKKTGKAIL”, the “soluble on expression in E. coli” value was “soluble”.

In the case of “MGSSHHHHHHSSGLVPRGSHMFANDATFEIKKCDLHRLEEGPPVTTVLTREDGLKYYRMMQTVRRMELKADQLYKQKIIRGFCHLCDGQEACCVGLEAGINPTDHLITAYRAHGFTFTRGLSVREILAELTGRKGGCAKGKGGSMHMYAKNFYGGNGIVGAQVPLGAGIALACKYNGKDEVCLTLYGDGAANQGQIFEAYNMAALWKLPCIFICENNRYGMGTSVERAAASTDYYKRGDFIPGLRVDGMDILCVREATRFAAAYCRSGKGPILMELQTYRYHGHSMSDPGVSYRTREEIQEVRSKSDPIMLLKDRMVNSNLASVEELKEIDVEVRKEIEDAAQFATADPEPPLEELGYHIYSSDPPFEVRGANQWIKFKSVS”, the “soluble on expression in E. coli” value is recorded as “soluble”.

Regarding “MGSDKIHHHHHHMQKLGIFIYSLGSGGAERVVATLLPILSLKFEVHLILMNDKISYEIPECQIHFLECSKPSENPILKFLKLPFLALKYKKLCRNLGIDTEFVFLNRPNYIALMARMFGNKTRLVINECTTPSVMYMKNNFNSLVNKFLISLLYPKADLILPNSKGNLEDLVQNFSISPKKCEILYNAIDLENIGQKALEDIALKDKFILSVGRLDKGKNHALLIRAYARLKTDLKLVILGEGVLKDELLALIKELNLEEKVLLLGFDNNPYKYMAKCEFFAFASVFEGFSNVLIESLACSCAVVCTDHKSGARELFGDDEFGLLVEVDNENSMFQGLKTMLEDDKLRKAYKNKAKTRAKAFDKVKIARDALKYLLG”, the “soluble on expression in E. coli” value is reported as “not soluble”.

As to “LQIFSKEGLLIQEYGEKKRIPVTYDEIPPTLIHALIATEDQRFFEHPGVDVMGLGRAAVSMLKTGTKSQGGSTITMQVARNFFLSRKKTFLRKFNEIMLAIKIDRELSKEKILELYLNRVYLGNRAYGVGAAAMVYFGKSLKDLNLAELAMIAGLPQAPSTQNPIANP”, the “soluble on expression in E. coli” value is recorded as “not soluble”.

As for “MGSDKIHHHHHHMLTRLEVNCFKNLLGFSVNFGPFNCVAGLNGVGKSNIFDSIKFLSLLADKSIVEAALEVRESDSTDPLDIFWTNGEFRSERLSLAVEMIVPVDVIDDFGRRAKATSTFLRYEVELARDDGERESGSLGLHLVKETLIHINKGEAVDRLRFPMSAAKFRENIVINKRKGAGFISTHQDRDGIVEIHLHQDGGSSGQPQKFPARNAPKTVVSNTNSGVWPTILAARREMQSWRFLSLEPSAMRRSNKIHEEGAVSSGGGRLGAALYKLHRKDPSVYTRVASRLSEIVPTSDIRVDVDQVRQLLTVEVKERSGAFLPARALSDGTLRFLALSIIAEDPDFNGVLCFEEPENGIHPARVGAMLALLKELSVDPHDEVSESNSMRQIVVATHSPVLVSLEEPNDLIFADVVKVKGPNGMPATTIRCKCLRESWRFSDEEGNGIDRASIISYLELPPDRQISLNLKTTGVAINLEATV”, the “soluble on expression in E. coli” value is “not soluble”.

Take “MAHHHHHHMQYQRAALVIASPALTQREVEFTKSAWLAGLRPDQRTAQQMREVSVEFPLLSRDVVVVRCGGSVVTAAIATALVEPTPQRPKHGLLHFSVRRLHTERDSPAADGSTQKNLVAFLERLVRTGGVIDTAGLCVLPGQKVWSLTVDVTIMNDEGNCNDAAVWAVIALLMHHRRPELTVRGSSVIVHPPHEREPVPLSVQHTPLPFTFAITMAPTEREKALNHQRALSATGSSSGPQPSSGVGNSIDTASAFAIDGTSPQPLGVVVDPTTAESLAAASSIVVAINAEGQVCTVVKAEGCSIHLKDLNACIEAAGTLAPRVLDLIKVAMEAHDERRKTAMKGQFAWAQKRSGVGKVEQACVKKIKTET”: the “soluble on expression in E. coli” value is “not soluble”.

With “MKFMQYTEKVMQHFMNPHNVGVIENPDGYGKVGNPSCGDIMEIFIKVDNNIISDVKFRTFGCASAIASSSISTDMIIGKTVEEALKLTNKQVVDELGGLPAVKMHCSVLAEEAIKMAIEDYISKRDGKLEHHHHHH”, the “soluble on expression in E. coli” value was “soluble”.

Regarding “MSNIITDYSQYNEKQLHNFLNSIEKQLLKAERDKNKAIKKIQECELQERMIRQVLAQKHSQEKEPTPSLLNTIASKDDPEYDVSFGDFNDFLQIAKQERERHNA”, the “soluble on expression in E. coli” value is “not soluble”.

Take “FKRVSKAAVTASVTVIKAEDLVNTPVANPMELLQGRVPGLNIQMNNGTPGGLPSFSIRGVSDISVQSSGDGEFMMGLTPPLFVVDGIPQEDVTGYDAAGLLSGATVSPLAMIPLEDIANIQVLKDAAATSLYGSKGAYGVILIETKRGETA”: the “soluble on expression in E. coli” value is on record as “not soluble”.

Take “MGSDKIHHHHHHMEKDKKIPAKIYPFYPNGQFYFERGVEAFRDQRIKEAIRYLVRASELEPGEAVILCQLAICYTEIGQFHKSNQLLREVLEQRNGNMEYCYYFIANNFAYMKDYRRALQYANRYLDSSTDGEYTEEAKDLIEVLLEETPFGETIENGFSKLEQEFYSYKKEINRYLAEEDSASACDILRKVIDEKPNFWPAYNQLASLYFEQLKEEEGVRVLSDLLSRNPGNLLGICDLFIYHFYKGNRKEADELYLELRDVLPVLAHHKEKLGLIHAMMGEYEEADDLLEQVADLEVTERSKYYYFRAKSSYYLGDVEGAKMFWHSFLECDLYEDVRFPWEQEPDLTNDTRLVLEMLQEEDDLTHMLGVYALTISGNRPELVLFHPLLDMSDWSYMEHLMFTNFDYFPDGAIEQNGYLIAKAMIILKENGILLNEEYMALYKQMFSLVLIDAGKDLILGRYTIETVASAIAKLFLPHLKLQLVEEFECSKCARDIERVLSR”: the “soluble on expression in E. coli” value was “not soluble”.

As to “MFPYYQRQCPTGSVPYTIKAGDTLAAIARIYGTTVQDIINANPDIDPYYLRVGQQICIPLTMQIYPSCPTTNYYVVRPEDTLESIAAYFNITPQQLLYSNYGIDPTDLYVDQILCIPVAPPPVTVNVNVAERTLTVYRDGRIYRTYRIALENPASPIPRGTFTVLNKQVDPGVEMGARWIGLSEAGFGIHGTNTPEFIDVVSTGNSIVMSNEDVSELFNLVPVGTIVTIS”, the “soluble on expression in E. coli” value was “soluble”.

On to “MGSDKIHHHHHHMTKSKISNPKLPMALQTSTIFSLQAPKDISLNEIDAELNQIWQSYGITGEDGGLPSATRATTFTLVVYEPEETQYLLAALGFYNGPIDGILGPQMAAALREVQKKHKLPETGTATQETLTILREEFAKGQRGGTGGEHAIAGLNSSSPRIADEIALRNPCRIIALFPITGEDEGVKAQVSAYCPIQKQSSSTLICCEYITLSGTAAALERIGGMIPALLIGGLPKFLWWKATPDPNNGLFKRLAAICNNVIVDSCNFNEPESDLLRLEELVEAGVPLADLNWRRLASWQELTAEAYDSPKRRAALREIDRVTIDYEKGNPAQALLFLGWLASRLEWQPVSYQKESGDYDITRIHFISQDQRQVEAELAGVPVADVGDIIGDLIALRLSSTNPQADCGTVICSETGGCMRMETHGGAQSAGLFQQVTSLSEQKAEALLSQQVQRWGRESLFEESLGVTANIFKLAN”, for which the “soluble on expression in E. coli” value is “not soluble”.

With “MSLQKITVPTWAEINLDNLRFNLNNIKNLLEEDIKICGVIKADAYGHGAVEVAKLLEKEKVDYLAVARTAEGIELRQNGITLPILNLGYTPDEAFEDSIKNKITMTVYSLETAQKINEIAKSLGEKACVHVKIDSGMTRIGFQPNEESVQEIIELNKLEYIDLEGMFTHFATADEVSKEYTYKQANNYKFMSDKLDEAGVKIAIKHVSNSAAIMDCPDLRLNMVRAGIILYGHYPSDDVFKDRLELRPAMKLKSKIGHIKQVEPGVGISYGLKYTTTGKETIATVPIGYADGFTRIQKNPKVLIKGEVFDVVGRICMDQIMVRIDKDIDIKVGDEVILFGEGEVTAERIAKDLGTINYEVLCMISRRVDRVYMENNELVQINSYLLKEGHHHHHH”, the “soluble on expression in E. coli” value is “soluble”.

For the sequence “MGRNDSEFPSDEELKKLAGKIKGAAIRANTKILKSYDPDTYGNYLDQLDGIRSQAEWLGTAFDDFLKPSPWDFDDMLKALDEIASDLGQAVGETEIKNGIVQGRIDTTKQFLGEGGWKGALADSFKMDYLEPIGSHIAANQGAVTLVTHDGLQAMRDIYGKARENLKDLGEKAVTAFEQADGISASDLKTLLTVLSAAFGLGTAVLSAFAPAAAAGAGIASALVSGGIAVGSDKVGEDEESELAADYPDKVEENFKNALEKLKEQITTMEDELIKVLQKGTSDIASIVWGEKLDRLNGFSALFGMGNQSLLAPKVPDLSMVAFGDDPGKLKDGLVQVSG”, the “soluble on expression in E. coli” value is on record as “not soluble”.

On to “MGGLDKMSVEKKLLLDVKDLKVHFNITPKSAWPWTKPVTLKAVDGVNVRLYEGETLGVVGESGCGKSTFARAIIGLVQATHGEVVWLGQDLTRMQEVKRRATRKQIQMIFQDPLASLNPRMTVGDIIAEPLQTFYPELSKQEVKDRVKEMMAKVGLLPNVINRYPHEFSGGQCQRIGIARALILKPKMIICDEPVSALDVSIQAQVVNLLKELQKELGLSLVFIAHDLSVVKHISDRVLVMYLGNAVELGVSKELFANPKHPYTKALMSAVPIPDPNIERNKTIQMLEGDLPSPMNPPSGCVFRTRCPQATAECAKTKPVIKGSDIHSVSCLYAEA”, for which the “soluble on expression in E. coli” value is “not soluble”.

For the sequence “LLTAAYAAKEHLIMTTPYFVPSDDLLHAICTAAQRGVDVSIILPRKNDSLLVGWASRAFFTELLAAGVKIYQFEGGLLHTKSVLVDGELSLVGTVNLDMRSLWLNFEITLVIDDAGFGSDLAAVQDDYISRSRLLDARLWLKRPLWQRIAERLFYFFSPLL”, the “soluble on expression in E. coli” value is listed as “not soluble”.

Source of the values: the DeepSol protein solubility set.
